Results on 1 substance are retold here after EP2085478A1.

This test has as its target XKVLQT1 (Xenopus KVLQT1 homologue, 1.6 kb partial clone) (Xenopus) (UniProt P70057). The experiment in a line: cell-based or functional assay.
UniProt P70057, sequence (P70057 other isoform, or with tags, fused parts or gaps): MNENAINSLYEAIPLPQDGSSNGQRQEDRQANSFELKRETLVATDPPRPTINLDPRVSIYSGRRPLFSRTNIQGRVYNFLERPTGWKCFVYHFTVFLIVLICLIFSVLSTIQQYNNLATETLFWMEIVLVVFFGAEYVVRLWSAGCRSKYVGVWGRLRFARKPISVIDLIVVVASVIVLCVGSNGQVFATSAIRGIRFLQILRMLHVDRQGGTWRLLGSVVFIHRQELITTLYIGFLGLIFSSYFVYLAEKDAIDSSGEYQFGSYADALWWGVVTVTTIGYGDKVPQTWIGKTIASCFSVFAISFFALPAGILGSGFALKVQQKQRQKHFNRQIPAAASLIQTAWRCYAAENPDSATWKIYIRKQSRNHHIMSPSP

Turning to human minK (from UniProt P15382 1-129), the IsK at +40 mV, oocytes injected with 60 pg hminK cRNA was found to be 2.11 µA; the IsK at +40 mV, oocytes injected with 1 ng hminK cRNA was 2.2 µA; the V½ of the normalized isochronal activation curve, oocytes injected with hminK was 2.4 mV.
